The source of these data is patent publication US20250263677A1, “BIOCATALYTIC USE OF NONHEME IRON PROTEINS FOR MOLECULAR FUNCTIONALIZATION” (The Johns Hopkins University, priority 2022, published 2025).

Read-outs that look alike come from different tables or passages of the source.

A short description of series [1]: 1NF azidation with Sav HppD variants from directed evolution (whole E. coli cells). It counts as biochemical. The note with it: OD600=10, 10 mM 1NF, 25 mM NaN3, 2.5 mM Fe2+; for TTN (total turnover): KPi pH 7.4, anaerobic, 24 hours. How it is done:
FIGS. 9A-9C is a computational model of the Sav HppD active site, a reaction scheme, and a plot of total turnovers for various Sav HppD variants. […] The computational model was generated from protein database entry 1T47. FIG. 9B provides the azidation reaction scheme for the reaction screened with a high-throughput screening platform. FIG. 9C provides representative variants identified during the directed evolution of Sav HppD. Experiments were performed at analytical scale using suspensions of E. coli expressing Sav HppD variants (OD600=10), 10 mM substrate 1NF, 25 mM NaN3, 2.5 mM Fe^2+ in KPi buffer (pH 7.4) at room temperature under anaerobic conditions for 24 hours.
In a typical experiment, ferrous ammonium sulfate (20 μL, 100 mM in water), sodium azide (20 μL, 1 M in water), and N-fluoroamide substrate (20 μL, 1.5 M in DME) were added to E. coli harboring non-heme iron enzyme variant (400 μL, adjusted to the appropriate OD600) in a 2 mL screw top GC vial in an anaerobic chamber. The vial was capped and shaken at 680 rpm at room temperature for 24 hours. At the end of the reaction, the vial was opened and the reaction was quenched with 6 mL of a hexanes/ethylacetate solution (4:6 v/v) of internal standard 1,2,3-trimethoxybenzene (0.5 mM final concentration). The reaction mixture was transferred to a 15 mL centrifuge tube, vortexed (10 seconds, 3 times), then centrifuged (10,500×g, 5 min) to completely separate the organic and aqueous layers. An aliquot (200-300 μL) of the organic layer was used for product quantification via GCMS and enantioselectivity via chiral HPLC or chiral GC. The total turnover numbers (TTNs) reported are calculated with respect to non-heme iron enzymes expressed in E. coli and represent the total number of turnovers obtained from the catalyst under the stated reaction conditions.
A high-throughput screening (HTS) platform based on copper-catalyzed azide-alkyne cycloaddition (CuAAC) was utilized for Sav HppD variants, and provided reliable quantification of enzymatic azidation products with a coefficient of variation of 9% and a detection limit of 4 μM. With this HTS platform, more than 5,000 clones generated through error-prone PCR or site-saturation mutagenesis were evaluated.

Series [2] in a line: Azidation reaction condition optimization with Sav HppD Az1 and Az2 (whole E. coli cells). It counts as biochemical.
Series [3] is described as follows: Kinetic analyses of 1NF azidation with purified Sav HppD protein variants. It counts as biochemical. The method, then: Kinetic analyses for wild-type Sav HppD, Az1, and Az2 mediated 1NF azidation were performed in an anaerobic chamber. Ferrous ammonium sulfate (10 μL, 100 mM in water) and sodium azide (10 μL, 1 M in water) were added to a buffer solution containing purified Sav HppD protein variant (20 M, 2.4 mL) and the solution was shaken at 600 rpm for 5 minutes. A 1,2-dimethoxyethane solution of N-fluoroamide substrate 1NF was added to the solution (final concentration ranging from 0.25 mM to 15 mM in reaction solution). An aliquot of 100 μL of the reaction mixture was removed at 3, 6, 9, 12, and 15 minutes and quenched by vortexing with 300 μL 6:4 EtOAc/hexanes solution containing 0.5 mM (final concentration) internal standard 1,2,3-trimethoxybenzene. After centrifugation at 12,000 rpm for 10 mins, an aliquot (200 μL) of the organic layer was taken for GCMS analysis for product quantification.

A short description of series [4]: Substrate scope of enzymatic azidation of N-fluoroamide substrates (whole E. coli cells). It counts as biochemical. The note with it: across the substrates and conditions tested. How it is done: FIGS. 3A-3C is an illustration with reaction products generated from exemplary substrate compounds. […] Experiments were performed at analytical scale using suspensions of E. coli expressing Sav HppD variants in KPi buffer (pH 7.4) at room temperature under anaerobic conditions for 24 hours. The absolute configuration of enzymatically synthesized azidation product 1N was determined to be S via X-ray crystallography. The absolute configurations of all other azidation products were inferred by analogy. FIG. 3B summarizes a preparative scale synthesis and absolute configuration determination of product 1N. […]
In a typical experiment, ferrous ammonium sulfate (20 μL, 100 mM in water), sodium azide (20 μL, 1 M in water), and N-fluoroamide substrate (20 μL, 1.5 M in DME) were added to E. coli harboring non-heme iron enzyme variant (400 μL, adjusted to the appropriate OD600) in a 2 mL screw top GC vial in an anaerobic chamber. […] An aliquot (200-300 μL) of the organic layer was used for product quantification via GCMS and enantioselectivity via chiral HPLC or chiral GC. The total turnover numbers (TTNs) reported are calculated with respect to non-heme iron enzymes expressed in E. coli and represent the total number of turnovers obtained from the catalyst under the stated reaction conditions. […]

Series [5] is classed as biochemical, E. coli. How it is done: The reactions were performed by adding ferrous ammonium sulfate (10 μL, 100 mM in water), sodium azide (10 μL, 1 M in water), and N-fluoroamide substrate 1NF (10 μL, 400 mM in DME) to E. coli harboring non-heme iron enzymes (400 μL, adjusted to OD600=40) in a 2 mL screw top GC vial. The vial was capped and shaken at 680 rpm at room temperature for 24 hours. At the end of the reaction, the vial was opened and the reaction was quenched with 0.8 mL of a hexanes/ethylacetate solution (4:6 v/v) of internal standard 1,2,3-trimethoxybenzene (0.5 mM final concentration). The reaction mixture was transferred to a 2 mL microcentrifuge tube, vortexed (10 seconds, 3 times), then centrifuged (14,000×g, 5 min) to completely separate the organic and aqueous layers. An aliquot (200-300 μL) of the organic layer was used for product quantification via GCMS and enantioselectivity via chiral HPLC or chiral GC.

[6] abbreviates: 1NF (10 μL, 800 mM), OD600 = 10.
The mark [7] stands for this setting: 1NF (10 μL, 1.5M), Fe^2+ (20 μL, 100 mM), NaN3 (40 μL, 1M), OD600 = 10.
[8] abbreviates: 1NF (20 μL, 1.5M), Fe^2+ (20 μL, 100 mM), NaN3 (40 μL, 1M), OD600 = 10.
Setting [9] is: 1NF (10 μL, 400 mM), Fe^2+ (10 μL, 100 mM), NaN3 (10 μL, 1M), OD600 = 10.
Setting [10] is: 1NF (20 μL, 1.5M), Fe^2+ (20 μL, 100 mM), NaN3 (40 μL, 1M), OD600 = 40.
Setting [11] is: whole E. coli cells OD600=40, 1NF, NaN3, Fe2+, 24 hours.

B1: HppD Az1: sextuple mutant Sav HppD V189A F216A P243A N245Q Q255A L367I, SEQ ID NO: 2 (protein)
chain: MTQTTHHTPDTARQADPFPVKGMDAVVFAVGNAKQAAHYYSTAFGMQLVAYSGPENGSRETASYVLTNGSARFVLTSVIKPATPWGHFLADHVAEHGDGVVDLAIEVPDARAAHAYAIEHGARSVAEPYELKDEHGTVVLAAIATYGKTRHTLVDRTGYDGPYLPGYVAAAPIVEPPAHRTFQAIDHCAGNVELGRMNEWVGFYNKVMGFTNMKEAVGDDIATEYSALMSKVVADGTLKVKFAIQEPALAKKKSAIDEYLEFYGGAGVQHIALNTGDIVETVRTMRAAGVQFLDTPDSYYDTLGEWVGDTRVPVDTLRELKILADRDEDGYLLQIFTKPVQDRPTVFFEIIERHGSMGFGKGNFKAIFEAIEREQEKRGNL
Take B1: the “1N/1A (ratio of 1N to 1A among products)” value in series [1] came out at 15.5. The “1N/1F (ratio of 1N to 1F among products)” value in series [1] turned out to be 53.8. The “TTN (total turnover)” value in series [1] was determined as 1340 ± 40; in series [1] (listed as Sav HppD Az1), 1340. Besides, the 1/1A in series [2] (setting [6]) stood at 18.0; in series [2] (setting [7]), 19.5; in series [2] (setting [8]) it was 20.0; in series [2] (NaN3 (20 μL, 1M)), 14.0; in series [2] (OD600 = 10), 16.4; in series [2] (initial conditions), 15.5. Moreover, the 1/1F in series [2] (setting [6]) is reported as 52.0; in series [2] (setting [7]), 47.0; in series [2] (setting [8]), 55.0; in series [2] (NaN3 (20 μL, 1M)) it was 52.0; in series [2] (OD600 = 10), 48.0; in series [2] (initial conditions), 54.0. The TTN is on record as 2480 ± 30 in series [2] (setting [6]); 3100 ± 60 in series [2] (setting [7]); 4290 ± 50 in series [2] (setting [8]); 1550 ± 40 in series [2] (NaN3 (20 μL, 1M)); 1940 ± 20 in series [2] (OD600 = 10); 1340 ± 40 in series [2] (initial conditions). In addition, the “improvement in catalytic efficiency (kcat/KM) compared to the wild-type enzyme” value in series [3] is “around 2 fold”. Also, the “activity and enantioselectivity” value in series [4] is “higher activity but lower enantioselectivity than Sav HppD Az2”.

B2: HppD Az2: septuple mutant Sav HppD V189A N191A S230L P243G N245F Q255P L367I, SEQ ID NO: 3 (protein)
chain: MTQTTHHTPDTARQADPFPVKGMDAVVFAVGNAKQAAHYYSTAFGMQLVAYSGPENGSRETASYVLTNGSARFVLTSVIKPATPWGHFLADHVAEHGDGVVDLAIEVPDARAAHAYAIEHGARSVAEPYELKDEHGTVVLAAIATYGKTRHTLVDRTGYDGPYLPGYVAAAPIVEPPAHRTFQAIDHCAGAVELGRMNEWVGFYNKVMGFTNMKEFVGDDIATEYSALMLKVVADGTLKVKFGIFEPALAKKKSPIDEYLEFYGGAGVQHIALNTGDIVETVRTMRAAGVQFLDTPDSYYDTLGEWVGDTRVPVDTLRELKILADRDEDGYLLQIFTKPVQDRPTVFFEIIERHGSMGFGKGNFKAIFEAIEREQEKRGNL
With B2, in series [1], the “1N/1A (ratio of 1N to 1A among products)” value is on record as 19.3, the “1N/1F (ratio of 1N to 1F among products)” value is given as 30.6 and the “TTN (total turnover)” value amounted to 490 ± 20. Besides, the “TTN (total turnover)” value in series [1] (listed as Sav HppD Az2) is given as 490. Also, in series [2] (setting [9]), the 1/1A was 19.3, the 1/1F worked out at 30.6 and the TTN is given as 490 ± 20. In addition, in series [2] (setting [8]), the 1/1A stood at 7.0, the 1/1F is 18.0 and the TTN amounted to 260 ± 30. Besides, in series [2] (setting [10]), the 1/1A was 21.0, the 1/1F turned out to be 34.0 and the TTN is 1820 ± 50. Moreover, the “improvement in catalytic efficiency (kcat/KM) compared to the wild-type enzyme” value in series [3] was “around 2 fold”.

B3: Sav HppD: (4-hydroxyphenyl)pyruvate dioxygenase from Streptomyces avermitilis, SEQ ID NO: 1, Uniprot Q53586 (protein, listed as Streptomyces sp.)
chain: MTQTTHHTPDTARQADPFPVKGMDAVVFAVGNAKQAAHYYSTAFGMQLVAYSGPENGSRETASYVLTNGSARFVLTSVIKPATPWGHFLADHVAEHGDGVVDLAIEVPDARAAHAYAIEHGARSVAEPYELKDEHGTVVLAAIATYGKTRHTLVDRTGYDGPYLPGYVAAAPIVEPPAHRTFQAIDHCVGNVELGRMNEWVGFYNKVMGFTNMKEFVGDDIATEYSALMSKVVADGTLKVKFPINEPALAKKKSQIDEYLEFYGGAGVQHIALNTGDIVETVRTMRAAGVQFLDTPDSYYDTLGEWVGDTRVPVDTLRELKILADRDEDGYLLQIFTKPVQDRPTVFFEIIERHGSMGFGKGNFKALFEAIEREQEKRGNL
Consider B3, for which, in series [5] (no azide addition), the “1A % (yield of 1A)” value is recorded as 6.5% and the “1F % (yield of 1F)” value came out at 2.2%. In series [5] (setting [11]), the “1A % (yield of 1A)” value was 10.0% and the “1F % (yield of 1F)” value is 3.7%. In series [5] (whole E. coli cells OD600=40, 1NF, NaN3, Fe2+, room temperature, 24 hours), the “1N % (yield of 1N)” value came to 33.0 ± 2.0%. Further, in series [1], the “1N/1A (ratio of 1N to 1A among products)” value is recorded as 3.0, the “1N/1F (ratio of 1N to 1F among products)” value is reported as 9.0 and the “TTN (total turnover)” value is reported as 250 ± 10.
